Among the data in paper PMC5358978 (2017) are Kd values, retold here.

As usually defined, the Kd is the concentration at which binding is half-saturated.

This assay concerns the target human CRM1 (HsCRM1), wild type (human, UniProt O14980 1-1071). The assay can be described thus: direct titration, PKI WT set.

Sequence of human CRM1 (HsCRM1), wild type (O14980 whole entry): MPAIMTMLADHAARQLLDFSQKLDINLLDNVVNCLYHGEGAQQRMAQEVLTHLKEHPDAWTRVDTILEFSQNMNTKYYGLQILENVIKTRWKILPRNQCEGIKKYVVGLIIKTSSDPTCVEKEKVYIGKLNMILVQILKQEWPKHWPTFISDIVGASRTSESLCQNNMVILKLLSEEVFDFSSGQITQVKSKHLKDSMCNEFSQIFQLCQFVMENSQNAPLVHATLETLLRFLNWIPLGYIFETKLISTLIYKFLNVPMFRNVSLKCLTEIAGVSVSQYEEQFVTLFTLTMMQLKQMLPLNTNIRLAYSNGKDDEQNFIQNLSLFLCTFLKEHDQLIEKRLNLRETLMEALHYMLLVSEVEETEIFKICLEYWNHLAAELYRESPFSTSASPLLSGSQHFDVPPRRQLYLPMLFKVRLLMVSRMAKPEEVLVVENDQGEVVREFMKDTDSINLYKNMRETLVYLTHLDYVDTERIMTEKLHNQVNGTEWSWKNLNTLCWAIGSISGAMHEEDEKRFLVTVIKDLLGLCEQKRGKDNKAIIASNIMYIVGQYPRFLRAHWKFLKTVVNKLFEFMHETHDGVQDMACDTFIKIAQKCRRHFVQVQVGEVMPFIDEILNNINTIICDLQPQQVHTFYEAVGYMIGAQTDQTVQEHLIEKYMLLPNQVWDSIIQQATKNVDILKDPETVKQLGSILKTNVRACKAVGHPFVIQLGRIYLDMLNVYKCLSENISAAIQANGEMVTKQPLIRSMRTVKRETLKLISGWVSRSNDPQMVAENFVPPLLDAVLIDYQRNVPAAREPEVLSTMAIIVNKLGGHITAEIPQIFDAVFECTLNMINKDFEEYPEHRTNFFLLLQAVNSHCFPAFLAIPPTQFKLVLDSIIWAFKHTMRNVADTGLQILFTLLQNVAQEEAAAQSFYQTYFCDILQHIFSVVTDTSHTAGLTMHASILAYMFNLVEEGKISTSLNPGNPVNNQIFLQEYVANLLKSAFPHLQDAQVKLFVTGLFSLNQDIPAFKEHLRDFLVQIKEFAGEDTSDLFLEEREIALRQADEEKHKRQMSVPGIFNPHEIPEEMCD

Turning to NSNELALKLAGLDINKT (FITC label (FITC-PKI^NES)) [FITC-PKI NES (NES of Protein Kinase A Inhibitor, wild type)], the Kd is 29 nM.
